Common to all, as to experiment: cell-based or functional assay
Assay [1] concerns the target human CGRP receptor (human CRLR / human RAMP1 heterodimer) (human, UniProt Q16602 23-461; O60894 27-148).
A further assay concerns the target human CGRP receptor (human, UniProt Q16602 23-461; O60894 27-148).
For another assay, the target named is T1, human PAC1 receptor (human, UniProt P41586 24-468).
T1 sequence: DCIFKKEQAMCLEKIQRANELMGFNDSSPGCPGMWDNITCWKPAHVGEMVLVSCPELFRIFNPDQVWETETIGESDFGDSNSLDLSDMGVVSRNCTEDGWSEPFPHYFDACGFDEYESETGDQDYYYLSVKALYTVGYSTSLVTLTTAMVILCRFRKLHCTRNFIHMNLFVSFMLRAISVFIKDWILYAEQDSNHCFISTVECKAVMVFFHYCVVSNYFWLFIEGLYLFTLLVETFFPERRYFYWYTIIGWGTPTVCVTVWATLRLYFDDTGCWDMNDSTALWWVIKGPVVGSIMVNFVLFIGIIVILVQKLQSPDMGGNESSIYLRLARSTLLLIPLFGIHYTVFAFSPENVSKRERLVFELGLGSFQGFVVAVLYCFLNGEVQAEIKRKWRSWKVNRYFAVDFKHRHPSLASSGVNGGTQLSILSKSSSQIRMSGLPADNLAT

human CGRP receptor, sequence (Q16602 23-461 limits assumed, chain 1 of 2): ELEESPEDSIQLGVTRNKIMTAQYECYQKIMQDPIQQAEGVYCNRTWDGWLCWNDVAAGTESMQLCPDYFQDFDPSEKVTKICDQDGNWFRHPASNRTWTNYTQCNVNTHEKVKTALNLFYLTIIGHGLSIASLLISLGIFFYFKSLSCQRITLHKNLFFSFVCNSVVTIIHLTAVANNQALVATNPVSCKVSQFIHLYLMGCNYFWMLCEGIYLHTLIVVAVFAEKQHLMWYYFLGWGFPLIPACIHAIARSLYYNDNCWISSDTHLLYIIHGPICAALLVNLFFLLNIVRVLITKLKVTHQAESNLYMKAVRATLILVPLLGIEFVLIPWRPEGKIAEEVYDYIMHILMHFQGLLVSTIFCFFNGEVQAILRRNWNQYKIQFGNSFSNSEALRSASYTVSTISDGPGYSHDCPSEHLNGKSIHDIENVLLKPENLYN
human CGRP receptor, sequence (O60894 27-148 limits assumed, chain 2 of 2): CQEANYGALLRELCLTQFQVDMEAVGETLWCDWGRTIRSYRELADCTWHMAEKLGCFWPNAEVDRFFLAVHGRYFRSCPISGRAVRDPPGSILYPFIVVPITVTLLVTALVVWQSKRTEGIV
human CGRP receptor (human CRLR / human RAMP1 heterodimer), sequence (Q16602 23-461 limits assumed, chain 1 of 2): as the sequence (Q16602 23-461 limits assumed, chain 1 of 2) above
human CGRP receptor (human CRLR / human RAMP1 heterodimer), sequence (O60894 27-148 limits assumed, chain 2 of 2): as the sequence (O60894 27-148 limits assumed, chain 2 of 2) above

B1: anti-CGRP receptor variant antibody 10, bivalent monoclonal antibody (antibody, human IgG1, lambda, N297G, V domains shown)
VH: QVQLVESGGGVVQPGRSLRLSCAASGFFFGSYGMHWVRQAPGKGLEWVAVISFAGEIEHYVDSVKGRFTISRDNSKNTLFLQMNSLRAEDTAVYYCARDRLNYYESSGYYHYKYYGMAVWGQGTTVTVSS
VL: QSVLTQPPSVSAAPGQKVTISCSGSSSNIGNNYVSWYQQLPGTAPKLLIYDNNKRPSGIPDRFSGSKSGTSATLGITGLQTGDEADYYCGTWDSRLSAVVFGGGTKLTVLG
For B1, in assay [1], the “Average IC50 (nM), cell-based cAMP assay, SK-N-MC cells, 3 nM human α-CGRP” value was 0.56 nM; the “Fold-improvement over 4E4 Ab (IC50, cAMP assay)” value worked out at 1 fold; the “Run 1 IC50 (nM), cell-based cAMP assay, SK-N-MC cells, 3 nM human α-CGRP” value is 0.43 nM; the “Run 2 IC50 (nM), cell-based cAMP assay, SK-N-MC cells, 3 nM human α-CGRP” value came out at 0.68 nM.

B2: iPS:454731 (bispecific antibody, human IgG1, kappa, lambda, N297G)
light 1: QSVLTQPPSVSAAPGQKVTISCSGSYSNIGRYSVSWYQQLPGTAPKLLIYDNNKRPSGIPDRFSGSKSGTSATLGITGLQTGDEADYYCGTWDSRLSAVVFGGGTKLTVLGQPKAAPSVTLFPPSSEELQANKATLVCLISDFYPGAVTVAWKADSSPVKAGVETTTPSKQSNNKYAAKSYLSLTPEQWKSHRSYSCQVTHEGSTVEKTVAPTECS
heavy 1: QVQLVESGGGVVQPGRSLRLSCAASGFTFSSFGMHWVRQAPGKGLEWVAVISFDGSIKYSVDSVKGRFTISRDNSKNTLFLQMNSLRAEDTAVYYCARDRLNYYESSGYYHYKYYGMAVWGQGTTVTVSSASTKGPSVFPLAPSSKSTSGGTAALGCLVKDYFPEPVTVSWNSGALTSGVHTFPAVLQSSGLYSLESVVTVPSSSLGTQTYICNVNHKPSNTKVDKKVEPKSCDKTHTCPPCPAPELLGGPSVFLFPPKPKDTLMISRTPEVTCVVVDVSHEDPEVKFNWYVDGVEVHNAKTKPCEEQYGSTYRCVSVLTVLHQDWLNGKEYKCKVSNKALPAPIEKTISKAKGQPREPQVYTLPPSRKKMTKNQVSLTCLVKGFYPSDIAVEWESNGQPENNYKTTPPVLKSDGSFFLYSKLTVDKSRWQQGNVFSCSVMHEALHNHYTQKSLSLSPGK
light 2: EIVLTQSPATLSLSPGERATLSCRASKAVWHNLHWYQQKPGQAPRLLIKYASQSLSGIPARFSGSGSGTDFTLTISSLEPEDFAVYYCHQSSMLPFTFGPGTKVDIKRTVAAPSVFIFPPSDEQLKSGTASVVCLLNNFYPREAKVQWKVDNALQSGNSQESVTEQDSKDSTYSLESTLTLSKADYEKHKVYACEVTHQGLSSPVTKSFNRGEC
heavy 2: not shown
Regarding B2, in the assay with human CGRP receptor, the “Fold-improvement over 4E4 Ab” value came to 1 fold and the “IC50” value turned out to be 0.52 nM. For the same molecule, in the assay with human PAC1 receptor, the “Fold-improvement over 29G4v22 Ab” value turned out to be 1.8 fold and the “IC50” value turned out to be 3.76 nM.

B3: iPS:454733 (bispecific antibody, human IgG1, kappa, lambda, N297G)
light 1: QSVLTQPPSVSAAPGQKVTISCSGSYSNIGRYSVSWYQQLPGTAPKLLIYDNNKRPSGIPDRFSGSKSGTSATLGITGLQTGDEADYYCGTWDSRLSAVVFGGGTKLTVLGQPKAAPSVTLFPPSSEELQANKATLVCLISDFYPGAVTVAWKADSSPVKAGVETTTPSKQSNNKYAAKSYLSLTPEQWKSHRSYSCQVTHEGSTVEKTVAPTECS
heavy 1: QVQLVESGGGVVQPGRSLRLSCAASGFTFSSFGMHWVRQAPGKGLEWVAVISFDGSIKYSVDSVKGRFTISRDNSKNTLFLQMNSLRAEDTAVYYCARDRLNYYESSGYYHYKYYGMAVWGQGTTVTVSSASTKGPSVFPLAPSSKSTSGGTAALGCLVKDYFPEPVTVSWNSGALTSGVHTFPAVLQSSGLYSLESVVTVPSSSLGTQTYICNVNHKPSNTKVDKKVEPKSCDKTHTCPPCPAPELLGGPSVFLFPPKPKDTLMISRTPEVTCVVVDVSHEDPEVKFNWYVDGVEVHNAKTKPCEEQYGSTYRCVSVLTVLHQDWLNGKEYKCKVSNKALPAPIEKTISKAKGQPREPQVYTLPPSRKKMTKNQVSLTCLVKGFYPSDIAVEWESNGQPENNYKTTPPVLKSDGSFFLYSKLTVDKSRWQQGNVFSCSVMHEALHNHYTQKSLSLSPGK
light 2: EIVLTQSPATLSLSPGERATLSCRASRSVGLALHWYQQKPGQAPRLLIKYASQSLSGIPARFSGSGSGTDFTLTISSLEPEDFAVYYCHQSSFLPFTFGPGTKVDIKRTVAAPSVFIFPPSDEQLKSGTASVVCLLNNFYPREAKVQWKVDNALQSGNSQESVTEQDSKDSTYSLESTLTLSKADYEKHKVYACEVTHQGLSSPVTKSFNRGEC
heavy 2: not shown
In the case of B3, in the assay with human CGRP receptor, the “Fold-improvement over 4E4 Ab” value worked out at 0.9 fold and the “IC50” value is 0.55 nM. Also, in the assay with human PAC1 receptor, the “Fold-improvement over 29G4v22 Ab” value amounted to 3 fold and 2.21 nM corresponded to half-maximal inhibition (IC50).

B4: iPS:454739 (bispecific antibody, human IgG1, kappa, lambda, N297G)
light 1: QSVLTQPPSVSAAPGQKVTISCSGSYSNIGRYSVSWYQQLPGTAPKLLIYDNNKRPSGIPDRFSGSKSGTSATLGITGLQTGDEADYYCGTWDSRLSAVVFGGGTKLTVLGQPKAAPSVTLFPPSSEELQANKATLVCLISDFYPGAVTVAWKADSSPVKAGVETTTPSKQSNNKYAAKSYLSLTPEQWKSHRSYSCQVTHEGSTVEKTVAPTECS
heavy 1: QVQLVESGGGVVQPGRSLRLSCAASGFTFSSFGMHWVRQAPGKGLEWVAVISFDGSIKYSVDSVKGRFTISRDNSKNTLFLQMNSLRAEDTAVYYCARDRLNYYESSGYYHYKYYGMAVWGQGTTVTVSSASTKGPSVFPLAPSSKSTSGGTAALGCLVKDYFPEPVTVSWNSGALTSGVHTFPAVLQSSGLYSLESVVTVPSSSLGTQTYICNVNHKPSNTKVDKKVEPKSCDKTHTCPPCPAPELLGGPSVFLFPPKPKDTLMISRTPEVTCVVVDVSHEDPEVKFNWYVDGVEVHNAKTKPCEEQYGSTYRCVSVLTVLHQDWLNGKEYKCKVSNKALPAPIEKTISKAKGQPREPQVYTLPPSRKKMTKNQVSLTCLVKGFYPSDIAVEWESNGQPENNYKTTPPVLKSDGSFFLYSKLTVDKSRWQQGNVFSCSVMHEALHNHYTQKSLSLSPGK
light 2: EIVLTQSPATLSLSPGERATLSCRASKSVGWSLHWYQQKPGQAPRLLIKYASQSLSGIPARFSGSGSGTDFTLTISSLEPEDFAVYYCHQSSRLPFTFGPGTKVDIKRTVAAPSVFIFPPSDEQLKSGTASVVCLLNNFYPREAKVQWKVDNALQSGNSQESVTEQDSKDSTYSLESTLTLSKADYEKHKVYACEVTHQGLSSPVTKSFNRGEC
heavy 2: not shown
Consider B4, for which, in the assay with human CGRP receptor, the “Fold-improvement over 4E4 Ab” value was determined as 0.9 fold and the “IC50” value amounted to 0.57 nM. In the assay with human PAC1 receptor, the “Fold-improvement over 29G4v22 Ab” value turned out to be 3.5 fold and the concentration for half-maximal inhibition (IC50) turned out to be 1.92 nM.

B5: iPS:454737 (bispecific antibody, human IgG1, kappa, lambda, N297G)
light 1: QSVLTQPPSVSAAPGQKVTISCSGSYSNIGRYSVSWYQQLPGTAPKLLIYDNNKRPSGIPDRFSGSKSGTSATLGITGLQTGDEADYYCGTWDSRLSAVVFGGGTKLTVLGQPKAAPSVTLFPPSSEELQANKATLVCLISDFYPGAVTVAWKADSSPVKAGVETTTPSKQSNNKYAAKSYLSLTPEQWKSHRSYSCQVTHEGSTVEKTVAPTECS
heavy 1: QVQLVESGGGVVQPGRSLRLSCAASGFTFSSFGMHWVRQAPGKGLEWVAVISFDGSIKYSVDSVKGRFTISRDNSKNTLFLQMNSLRAEDTAVYYCARDRLNYYESSGYYHYKYYGMAVWGQGTTVTVSSASTKGPSVFPLAPSSKSTSGGTAALGCLVKDYFPEPVTVSWNSGALTSGVHTFPAVLQSSGLYSLESVVTVPSSSLGTQTYICNVNHKPSNTKVDKKVEPKSCDKTHTCPPCPAPELLGGPSVFLFPPKPKDTLMISRTPEVTCVVVDVSHEDPEVKFNWYVDGVEVHNAKTKPCEEQYGSTYRCVSVLTVLHQDWLNGKEYKCKVSNKALPAPIEKTISKAKGQPREPQVYTLPPSRKKMTKNQVSLTCLVKGFYPSDIAVEWESNGQPENNYKTTPPVLKSDGSFFLYSKLTVDKSRWQQGNVFSCSVMHEALHNHYTQKSLSLSPGK
light 2: EIVLTQSPATLSLSPGERATLSCRASKSVGQSLHWYQQKPGQAPRLLIKYASQSLSGIPARFSGSGSGTDFTLTISSLEPEDFAVYYCHQSSRLPFTFGPGTKVDIKRTVAAPSVFIFPPSDEQLKSGTASVVCLLNNFYPREAKVQWKVDNALQSGNSQESVTEQDSKDSTYSLESTLTLSKADYEKHKVYACEVTHQGLSSPVTKSFNRGEC
heavy 2: not shown
For the molecule B5, in the assay with human CGRP receptor, the “Fold-improvement over 4E4 Ab” value is 0.9 fold and the “IC50” value worked out at 0.55 nM. Also, in the assay with human PAC1 receptor, the “Fold-improvement over 29G4v22 Ab” value is 2.8 fold and half-maximal inhibition (IC50) was put at 2.38 nM.

B6: iPS:454735 (bispecific antibody, human IgG1, kappa, lambda, N297G)
light 1: QSVLTQPPSVSAAPGQKVTISCSGSYSNIGRYSVSWYQQLPGTAPKLLIYDNNKRPSGIPDRFSGSKSGTSATLGITGLQTGDEADYYCGTWDSRLSAVVFGGGTKLTVLGQPKAAPSVTLFPPSSEELQANKATLVCLISDFYPGAVTVAWKADSSPVKAGVETTTPSKQSNNKYAAKSYLSLTPEQWKSHRSYSCQVTHEGSTVEKTVAPTECS
heavy 1: QVQLVESGGGVVQPGRSLRLSCAASGFTFSSFGMHWVRQAPGKGLEWVAVISFDGSIKYSVDSVKGRFTISRDNSKNTLFLQMNSLRAEDTAVYYCARDRLNYYESSGYYHYKYYGMAVWGQGTTVTVSSASTKGPSVFPLAPSSKSTSGGTAALGCLVKDYFPEPVTVSWNSGALTSGVHTFPAVLQSSGLYSLESVVTVPSSSLGTQTYICNVNHKPSNTKVDKKVEPKSCDKTHTCPPCPAPELLGGPSVFLFPPKPKDTLMISRTPEVTCVVVDVSHEDPEVKFNWYVDGVEVHNAKTKPCEEQYGSTYRCVSVLTVLHQDWLNGKEYKCKVSNKALPAPIEKTISKAKGQPREPQVYTLPPSRKKMTKNQVSLTCLVKGFYPSDIAVEWESNGQPENNYKTTPPVLKSDGSFFLYSKLTVDKSRWQQGNVFSCSVMHEALHNHYTQKSLSLSPGK
light 2: EIVLTQSPATLSLSPGERATLSCRASKSVGQSLHWYQQKPGQAPRLLIKYASQSLSGIPARFSGSGSGTDFTLTISSLEPEDFAVYYCHQSSRLPFTFGPGTKVDIKRTVAAPSVFIFPPSDEQLKSGTASVVCLLNNFYPREAKVQWKVDNALQSGNSQESVTEQDSKDSTYSLESTLTLSKADYEKHKVYACEVTHQGLSSPVTKSFNRGEC
heavy 2: not shown
Take B6: in the assay with human CGRP receptor, the “Fold-improvement over 4E4 Ab” value was found to be 1 fold and the “IC50” value stood at 0.52 nM. For the same molecule, in the assay with human PAC1 receptor, the “Fold-improvement over 29G4v22 Ab” value turned out to be 3.4 fold and the “IC50” value was 1.95 nM.

For the origin of these results see US20220363770A1 (Amgen, published 2022).
